Source: doi:10.1101/2020.04.27.064493 (bioRxiv, 2020)

B1: bovine DNMT1 RFTS domain (residues 349-594) (domain or fragment)
chain: PKCTECLQYLDDPELRYEQHPPDAVEEIQILTNERLSIFDANESGFESYEDLPQHKLTCFSVYCKRGHLCPIDTGLIEKDVELLFSGSAKPIYEDDPSPEGGINGKNFGPINEWWIAGFDGGEKALLGFSTSFAEYILMDPSPEYAPLFSVMQEKIYISKIVVEFLQSNPDSTYEDLINKIETTVPPCMLNLNRFTEDSLLRHAQFVVEQVESYDRAGDSDEQPIFLSPCMRDLIKLAGVTLGKRR
B2: H3_(1-24)K9me3/K18C/K23C peptide (peptide)
peptide: not shown
modifications: trimethyl-lysine at K9

Assays:
[1] = biological target: G76C-mutated ubiquitin (UniProt P0CG48 1-76, G76C); test: crystal structure
[2] = biological target: B1; test: crystal structure

binding result [1] | binding result [2] | Binder
binds |  | B1
binds | binds | B2
